Data set [1] has as its system SD rats. Description: Motor block four-level score (Example 30). It is filed as in vivo, rat. Further details: key to motor function score: 1 = normal motor function to 4 = complete loss with gait defect. As to conditions: for motor function score: direct injection around sciatic nerve, conjugate 10/11/12 at 32/24/48 mg/kg (as bupivacaine); for motor scores at different time points versus vehicle group: direct injection, conjugate 10/11/12 at 32/24/48 mg/kg. The procedure:
Male Sprague-Dawley rats are used in the study, about 230-250 g when accepted, and acclimated for at least 7 days prior to the experiment. Two rats are raised in each cage and fed freely with feed and water. The environmental conditions of the breeding room are 23±2° C., and the relative humidity is 40% to 70%, alternating 12 hours of light and dark. […] The qualified rats are randomly divided into 4 groups, 4 rats in each group, which are labeled as groups G1, G2, G3, and G4, respectively. Administration by direct injection in the sciatic nerve is adopted, and with the rat's back facing up, the drug is injected around the right sciatic nerve trunk between the right hip and the right thigh.
Motor block (four-level score): The exercise condition of each group of rats is evaluated by the motor block four-level scoring method. The scoring criteria are: paws can be dorsiflexed, stretched, valgus and other normal exercises, scored by 1 point; paws can be dorsiflexed, bendable or after the adduction, although the paws can be stretched after the adduction, the stretching ability is weakened, scored by 2 points; the paw can perform dorsiflexion, but no longer has the ability to stretch, scored by 3 points; the paws completely lose the ability of dorsiflexion, curling and stretching, and the rats produce a gait defect, scored by 4 points. The time point for measuring the motor block score is before administration, and 0.5 h, 1 h, 2 h, 4 h, 6 h, 8 h, 12 h, and 24 h after administration.

In data set [2] the test system is SD rats. Description: Motor block four-level score, rat sciatica model (SNL) (Example 32). It is filed as in vivo. Further details: key to motor function score: 1 = normal paw movement to 4 = complete loss, gait defect. The note with it: for motor function score: bupivacaine 8, conjugate 10/11/12 32/24/48 mg/kg; for effect on motor function of SD rats: conjugate 10/11/12 at 32/24/48 mg/kg. The source says: Intervertebral disc compression (SNL): This model is a pathological form that simulates clinical disc herniation. The specific method is to remove the autogenous caudal intervertebral disc tissue (annulus fibrosus and nucleus pulposus) form the rats and place the caudal intervertebral disc tissue between the proximal nerve root of the L5 dorsal root ganglion and the lower vertebral body to directly compress the L5 nerve root, wherein damage to the L5 nerve root or dorsal root ganglion should be avoided during the operation. 3 to 15 days after the model is successful, rats develop significant hyperalgesia, so the administration time we chose is between 3 days and 15 days.
Qualified rats are randomly divided into 5 groups, 6 rats in each group, which are labeled as groups G1, G2, G3, G4 and G5, respectively. Administration by intramuscular injection around sciatic nerve is adopted, and the grouping information of the experimental animals is shown in Table 11.
Motor block (four-level score): The exercise condition of each group of rats is evaluated by the motor block four-level scoring method. The scoring criteria are: paws can be dorsiflexed, stretched, valgus and other normal exercises, scored by 1 point; paws can be dorsiflexed, bendable or after the adduction, although the paws can be stretched, the stretching ability is weakened, scored by 2 points; the paw can perform dorsiflexion, but no longer has the ability to stretch, scored by 3 points; the paw completely loses the ability of dorsiflexion, curling and stretching, and the rats produce a gait defect, scored by 4 points. The time point for determining the withdrawal time of the hot plate is before administration, and 0.5 h, 1 h, 2 h, 4 h, 6 h, 8 h, 12 h, and 24 h after administration.

With “8-Arm-PEG-Bupivacaine, 20K [bupivacaine conjugate 12]”, the motor function score in data set [1] (0 h (before administration)), in data set [1] (0.5 h), in data set [1] (1 h), in data set [1] (2 h), in data set [1] (4 h) and in data set [1] (6 h) was 1 ± 0 throughout. Further, the motor function score in data set [1] (8 h), in data set [1] (12 h), in data set [1] (24 h), in data set [2] (0.5 h), in data set [2] (1 h) and in data set [2] (2 h) was 1 ± 0 in each case. In addition, the motor function score in data set [2] (4 h), in data set [2] (6 h), in data set [2] (8 h), in data set [2] (12 h) and in data set [2] (24 h) was 1 ± 0 each time. Moreover, the “motor scores at different time points versus vehicle group” value in data set [1] was “not significantly different”. Moreover, in data set [2], the “effect on motor function of SD rats” value is on record as “does not affect the motor function”.
Turning to “8-Arm-PEG-Bupivacaine, 20K [bupivacaine conjugate 11]”, the motor function score in data set [1] (0 h (before administration)), in data set [1] (0.5 h), in data set [1] (1 h), in data set [1] (2 h), in data set [1] (4 h) and in data set [1] (6 h) was 1 ± 0 throughout. Besides, the motor function score in data set [1] (8 h), in data set [1] (12 h), in data set [1] (24 h), in data set [2] (0.5 h), in data set [2] (1 h) and in data set [2] (2 h) was 1 ± 0 throughout. Besides, the motor function score in data set [2] (4 h), in data set [2] (6 h), in data set [2] (8 h), in data set [2] (12 h) and in data set [2] (24 h) was 1 ± 0 each time. Besides, the “effect on motor function of SD rats” value in data set [1] (conjugate 10 at 32 mg/kg, conjugate 11 at 24 mg/kg) is “does not affect the motor function”; in data set [2] it was “does not affect the motor function”. Further, in data set [1], the “motor scores at different time points versus vehicle group” value is listed as “not significantly different”.

Values taken from patent US11654198B2, “Application of combination of polyethylene glycol and local anesthetic in non-narcotic analgesia” (JENKEM TECHNOLOGY CO., LTD. (TIANJIN), priority 2016, dated 2023).
